Our source for the percent of parent values is article PMC4892554.

The target of experiment [1] is Palivizumab. Put plainly: flow cytometry on cells (shotgun mutagenesis alanine scan, HEK293T). The settings on record: read off a plot.
Experiment [2] addresses D25. The experiment is described as above. The note with it: read off a plot.

In the case of “wildtype RSV F (RSV-A2) expressed on HEK-293T cells (from UniProt P03420) G446A”, the percent of parent in experiment [1] is 70 % WT; in experiment [2], 90 % WT.

As to “wildtype RSV F (RSV-A2) expressed on HEK-293T cells (from UniProt P03420) D385A”, the values for the percent of parent in experiment [1] and in experiment [2] were 140 % WT and 88 % WT, respectively.

Consider “wildtype RSV F (RSV-A2) expressed on HEK-293T cells (from UniProt P03420) N426A”, for which the percent of parent in experiment [1] was found to be 290 % WT; in experiment [2], 230 % WT.

In the case of “wildtype RSV F (RSV-A2) expressed on HEK-293T cells (from UniProt P03420) K433A”, the figures for the percent of parent in experiment [1] and in experiment [2] were 150 % WT and 120 % WT, respectively.

For the substance “wildtype RSV F (RSV-A2) expressed on HEK-293T cells (from UniProt P03420) K465A”, the percent of parent in experiment [1] came out at 140 % WT; in experiment [2], 100 % WT.

With “wildtype RSV F (RSV-A2) expressed on HEK-293T cells (from UniProt P03420) F387A”, the percent of parent in experiment [1] amounted to 150 % WT; in experiment [2] it was 74 % WT.

With “wildtype RSV F (RSV-A2) expressed on HEK-293T cells (from UniProt P03420) N388A”, the percent of parent was found to be 87 % WT in experiment [1] and 74 % WT in experiment [2].
